Experimental data from the supplement of paper PMC9112550, “Optimization of the antimicrobial peptide Bac7 by deep mutational scanning” (BMC Biology, 2022).

System: Escherichia coli TOP10
Experiment: shrunken log2 fold change of peptide-encoding DNA abundance (4.5 h post-induction vs induction); higher = less antimicrobial activity (less host growth inhibition)
Conditions: time post-induction: 4.5 h; library: site-saturation at positions 5, 18, 19, 20
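Note: peptides expressed intracellularly from a pBAD plasmid library in pooled LB shake-flask culture, induced with 0.3% L-arabinose, DNA abundance read by NGS, three biological replicates, DESeq2 with apeglm shrinkage.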

**Q.** For RRIRYRPPRLPRPRPRPNIHPRP, which “shrunken log2 fold change” value is on record?
**A.** -0.98

**Q.** Which “shrunken log2 fold change” value does the source give for RRIRTRPPRLPRPRPRPPMGPRP here?
**A.** 0.271

**Q.** How did the “shrunken log2 fold change” value turn out when RRIRDRPPRLPRPRPRPAFAPRP was run?
**A.** 0.928

**Q.** For RRIRERPPRLPRPRPRPDTHPRP, which “shrunken log2 fold change” value is on record?
**A.** -0.532

**Q.** How did the “shrunken log2 fold change” value turn out when RRIRDRPPRLPRPRPRPKSYPRP was run?
**A.** 0.0134

**Q.** Which “shrunken log2 fold change” value does the source give for RRIRVRPPRLPRPRPRPLAGPRP here?
**A.** 0.334

**Q.** RRIRHRPPRLPRPRPRPWVCPRP was tested. Which “shrunken log2 fold change” value did it give?
**A.** -0.044

**Q.** With RRIRQRPPRLPRPRPRPEQIPRP as the sequence, how does the “shrunken log2 fold change” value read?
**A.** -0.0247

**Q.** With RRIRVRPPRLPRPRPRPSVIPRP as the sequence, how does the “shrunken log2 fold change” value read?
**A.** -0.239

**Q.** For RRIRARPPRLPRPRPRPDPRPRP, which “shrunken log2 fold change” value is on record?
**A.** 0.254

**Q.** Which “shrunken log2 fold change” value does the source give for RRIRPRPPRLPRPRPRPNNKPRP here?
**A.** -0.542

**Q.** With RRIRWRPPRLPRPRPRPDQEPRP as the sequence, how does the “shrunken log2 fold change” value read?
**A.** -0.00154

**Q.** Which “shrunken log2 fold change” value does the source give for RRIRRRPPRLPRPRPRPLAHPRP here?
**A.** 0.223

**Q.** How did the “shrunken log2 fold change” value turn out when RRIRDRPPRLPRPRPRPIDKPRP was run?
**A.** -0.0708

**Q.** For RRIRGRPPRLPRPRPRPWMFPRP, which “shrunken log2 fold change” value is on record?
**A.** 0.0448

**Q.** RRIRSRPPRLPRPRPRPMFEPRP was tested. Which “shrunken log2 fold change” value did it give?
**A.** -0.0573

**Q.** For RRIRLRPPRLPRPRPRPGGQPRP, which “shrunken log2 fold change” value is on record?
**A.** 0.319

**Q.** Which “shrunken log2 fold change” value does the source give for RRIRPRPPRLPRPRPRPTYPPRP here?
**A.** -0.137

**Q.** Which “shrunken log2 fold change” value does the source give for RRIRSRPPRLPRPRPRPGTYPRP here?
**A.** -1.16

**Q.** With RRIRRRPPRLPRPRPRPGFAPRP as the sequence, how does the “shrunken log2 fold change” value read?
**A.** 0.315

**Q.** How did the “shrunken log2 fold change” value turn out when RRIRRRPPRLPRPRPRPYGRPRP was run?
**A.** -0.0338

**Q.** Which “shrunken log2 fold change” value does the source give for RRIRCRPPRLPRPRPRPGNYPRP here?
**A.** -0.516

**Q.** For RRIRSRPPRLPRPRPRPIWCPRP, which “shrunken log2 fold change” value is on record?
**A.** -0.288

**Q.** Which “shrunken log2 fold change” value does the source give for RRIRHRPPRLPRPRPRPYHQPRP here?
**A.** -0.981

**Q.** For RRIRPRPPRLPRPRPRPILHPRP, which “shrunken log2 fold change” value is on record?
**A.** -0.277

**Q.** With RRIRKRPPRLPRPRPRPMKKPRP as the sequence, how does the “shrunken log2 fold change” value read?
**A.** 0.172

**Q.** How did the “shrunken log2 fold change” value turn out when RRIRHRPPRLPRPRPRPHKEPRP was run?
**A.** -0.00832

**Q.** How did the “shrunken log2 fold change” value turn out when RRIRFRPPRLPRPRPRPKMSPRP was run?
**A.** -0.369

**Q.** For RRIRCRPPRLPRPRPRPEKAPRP, which “shrunken log2 fold change” value is on record?
**A.** 0.0655

**Q.** With RRIRVRPPRLPRPRPRPIDLPRP as the sequence, how does the “shrunken log2 fold change” value read?
**A.** -0.417

**Q.** How did the “shrunken log2 fold change” value turn out when RRIRLRPPRLPRPRPRPPPSPRP was run?
**A.** 1.28

**Q.** For RRIRDRPPRLPRPRPRPWPVPRP, which “shrunken log2 fold change” value is on record?
**A.** 0.531

**Q.** For RRIRPRPPRLPRPRPRPNFQPRP, which “shrunken log2 fold change” value is on record?
**A.** -0.00527

**Q.** RRIRFRPPRLPRPRPRPFAFPRP was tested. Which “shrunken log2 fold change” value did it give?
**A.** -0.239

**Q.** For RRIRNRPPRLPRPRPRPETYPRP, which “shrunken log2 fold change” value is on record?
**A.** -0.554

**Q.** With RRIRIRPPRLPRPRPRPDEQPRP as the sequence, how does the “shrunken log2 fold change” value read?
**A.** 0.0601

**Q.** Which “shrunken log2 fold change” value does the source give for RRIRWRPPRLPRPRPRPRANPRP here?
**A.** 0.425

**Q.** With RRIRKRPPRLPRPRPRPDHWPRP as the sequence, how does the “shrunken log2 fold change” value read?
**A.** 0.355

**Q.** How did the “shrunken log2 fold change” value turn out when RRIRRRPPRLPRPRPRPRYCPRP was run?
**A.** 0.216

**Q.** With RRIRNRPPRLPRPRPRPIPAPRP as the sequence, how does the “shrunken log2 fold change” value read?
**A.** -0.0451

**Q.** How did the “shrunken log2 fold change” value turn out when RRIRWRPPRLPRPRPRPAWAPRP was run?
**A.** 0.579

**Q.** Which “shrunken log2 fold change” value does the source give for RRIRSRPPRLPRPRPRPNHEPRP here?
**A.** -0.175

**Q.** How did the “shrunken log2 fold change” value turn out when RRIRARPPRLPRPRPRPTQTPRP was run?
**A.** 0.69

**Q.** With RRIRIRPPRLPRPRPRPLAEPRP as the sequence, how does the “shrunken log2 fold change” value read?
**A.** -0.129

**Q.** Which “shrunken log2 fold change” value does the source give for RRIRYRPPRLPRPRPRPYYVPRP here?
**A.** 0.0372

**Q.** Which “shrunken log2 fold change” value does the source give for RRIRDRPPRLPRPRPRPPQYPRP here?
**A.** -0.0943

**Q.** RRIRARPPRLPRPRPRPEGNPRP was tested. Which “shrunken log2 fold change” value did it give?
**A.** 0.295

**Q.** For RRIRIRPPRLPRPRPRPHYIPRP, which “shrunken log2 fold change” value is on record?
**A.** -0.155

**Q.** For RRIRNRPPRLPRPRPRPEDIPRP, which “shrunken log2 fold change” value is on record?
**A.** -0.194

**Q.** With RRIRNRPPRLPRPRPRPHHMPRP as the sequence, how does the “shrunken log2 fold change” value read?
**A.** -1.41

**Q.** With RRIRCRPPRLPRPRPRPRAIPRP as the sequence, how does the “shrunken log2 fold change” value read?
**A.** 0.0982

**Q.** With RRIRPRPPRLPRPRPRPYPPPRP as the sequence, how does the “shrunken log2 fold change” value read?
**A.** -0.537

**Q.** Which “shrunken log2 fold change” value does the source give for RRIRERPPRLPRPRPRPKESPRP here?
**A.** 0.0252

**Q.** How did the “shrunken log2 fold change” value turn out when RRIRGRPPRLPRPRPRPSAEPRP was run?
**A.** 2.33

**Q.** How did the “shrunken log2 fold change” value turn out when RRIRQRPPRLPRPRPRPVPAPRP was run?
**A.** 0.475

**Q.** For RRIRYRPPRLPRPRPRPLNDPRP, which “shrunken log2 fold change” value is on record?
**A.** -0.0303

**Q.** For RRIRMRPPRLPRPRPRPVFGPRP, which “shrunken log2 fold change” value is on record?
**A.** 0.411

**Q.** Which “shrunken log2 fold change” value does the source give for RRIRYRPPRLPRPRPRPPQHPRP here?
**A.** -0.171

**Q.** For RRIRGRPPRLPRPRPRPGFGPRP, which “shrunken log2 fold change” value is on record?
**A.** 0.649

**Q.** For RRIRHRPPRLPRPRPRPAAKPRP, which “shrunken log2 fold change” value is on record?
**A.** 0.218

**Q.** RRIRMRPPRLPRPRPRPLWVPRP was tested. Which “shrunken log2 fold change” value did it give?
**A.** 0.0224

**Q.** For RRIRYRPPRLPRPRPRPEKRPRP, which “shrunken log2 fold change” value is on record?
**A.** 0.00709

**Q.** Which “shrunken log2 fold change” value does the source give for RRIRFRPPRLPRPRPRPVNQPRP here?
**A.** -0.188

**Q.** With RRIRSRPPRLPRPRPRPTFAPRP as the sequence, how does the “shrunken log2 fold change” value read?
**A.** 0.232

**Q.** How did the “shrunken log2 fold change” value turn out when RRIRDRPPRLPRPRPRPGFKPRP was run?
**A.** 0.0624

**Q.** For RRIRFRPPRLPRPRPRPPCSPRP, which “shrunken log2 fold change” value is on record?
**A.** 0.0952

**Q.** With RRIRVRPPRLPRPRPRPRELPRP as the sequence, how does the “shrunken log2 fold change” value read?
**A.** -0.0137

**Q.** With RRIRWRPPRLPRPRPRPQRHPRP as the sequence, how does the “shrunken log2 fold change” value read?
**A.** 0.163

**Q.** RRIRDRPPRLPRPRPRPIADPRP was tested. Which “shrunken log2 fold change” value did it give?
**A.** 0.163

**Q.** For RRIRLRPPRLPRPRPRPFDWPRP, which “shrunken log2 fold change” value is on record?
**A.** -0.133

**Q.** RRIRIRPPRLPRPRPRPENFPRP was tested. Which “shrunken log2 fold change” value did it give?
**A.** -0.0605

**Q.** For RRIRMRPPRLPRPRPRPRYPPRP, which “shrunken log2 fold change” value is on record?
**A.** 0.0438

**Q.** For RRIRPRPPRLPRPRPRPSNRPRP, which “shrunken log2 fold change” value is on record?
**A.** -0.783

**Q.** RRIRKRPPRLPRPRPRPYTLPRP was tested. Which “shrunken log2 fold change” value did it give?
**A.** 0.0187

**Q.** RRIRCRPPRLPRPRPRPMCWPRP was tested. Which “shrunken log2 fold change” value did it give?
**A.** 0.0297
